The target of the assay is mesothelin (UniProt Q13421 296-598). Nature of the assay: ELISA, purified phages added to mesothelin coated wells.

These results are taken from patent publication US7410801 (UNIVERSITY OF DELHI DEPARTMENT OF BIOCHEMISTRY, dated 2008).

Chain of mesothelin (Q13421 other isoform, or with tags, fused parts or gaps limits assumed): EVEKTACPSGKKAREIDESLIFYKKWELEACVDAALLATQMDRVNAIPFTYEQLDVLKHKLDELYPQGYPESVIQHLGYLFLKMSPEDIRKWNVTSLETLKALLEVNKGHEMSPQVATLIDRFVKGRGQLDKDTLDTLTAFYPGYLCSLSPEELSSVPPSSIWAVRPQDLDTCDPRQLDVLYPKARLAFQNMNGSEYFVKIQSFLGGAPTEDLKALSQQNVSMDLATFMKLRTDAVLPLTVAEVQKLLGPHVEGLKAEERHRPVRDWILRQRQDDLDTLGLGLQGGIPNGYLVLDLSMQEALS

B1: D-cmyc fusion protein displayed on lambda phage λDcDL1 (other)
chain (part 1 of 2): MTSKETFTHYQPQGNSDPAHTATAPGGLSAKAPAMTPLMLDTSSRKLVAWDGTTDGAAVGILAVAADQTSTTLTFYKSGTFRYEDVLWPEAASDETKKRTAFAGTAISIV
chain (part 2 of 2): EQKLISEEDL
notes: also called DcDL1 phages
On to B1, for which the binding result is “no binding”.
